Blank lines part the entries; values can stand above or below the molecule they belong to.
What was measured:
CCR7 = target: T1, CCR7 (Homo sapiens, UniProt P32248); assay: CCR7 signalling via Gαi (cAMP decrease, Camyel BRET) in transfected CHO cells; format: cell-based; settings: BRET ratio; for G-protein signalling via CCR7 induced by the chemokine itself (comparison): FIG. 4A-D; for effect of peptide on CCL19-induced CCR7 signalling / effect of peptide on CCL19 chimera-induced CCR7 signalling / effect of peptide on full-length CCL21-induced CCR7 signalling / effect of peptide on tailless CCL21-induced CCR7 signalling: peptide 10 μM
T1 construct: expressed in transfected cells; host or cells: CHO cells, transient lipofectamine co-transfection with the Camyel cAMP BRET sensor
T1 sequence (P32248 25-378): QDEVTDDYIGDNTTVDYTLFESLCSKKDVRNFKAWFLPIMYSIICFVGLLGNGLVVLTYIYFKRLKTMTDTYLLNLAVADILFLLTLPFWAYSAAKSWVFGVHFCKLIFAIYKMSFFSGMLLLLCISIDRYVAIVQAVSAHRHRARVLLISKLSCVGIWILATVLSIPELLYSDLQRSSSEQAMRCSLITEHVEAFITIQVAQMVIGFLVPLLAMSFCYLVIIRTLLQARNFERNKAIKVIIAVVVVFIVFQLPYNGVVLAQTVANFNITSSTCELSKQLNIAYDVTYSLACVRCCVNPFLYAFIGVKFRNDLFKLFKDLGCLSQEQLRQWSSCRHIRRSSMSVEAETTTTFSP
Method: CCR7 signalling induced by CCL19, CCL21, CCL19 chimera (CCL19 with CCL21 tail) and tailless CCL21 was investigated. Signalling was detected as a decrease in cAMP which is reflected by an increase in BRET (Bioluminescence resonance energy transfer) ratio.
CHO cells were grown in RPMI medium with 10% FBS and 1% Penicillin/Streptomycin. Cells where seeded in a concentration yielding 1,000,000 cells/well on transfection day (using 6-well-plates).
Cells were transfected with CCR7 and Camyel-encoding plasmids (in 1:5 ratio) using lipofectamine with a total of […] of DNA and […] lipofectamine per well. After 24 hours, the cells where washed in PBS and resuspended in PBS with glucose (final concentration 5 mM).
After harvesting, cells where pooled in two groups. One group was used as a control, whereas the other was supplemented with SEQ ID NO: 1 (CCL21 tail peptide (D1-4)) in a final concentration of 10 μM.
The cells where plated in a 96-well black-white iso plate according to setup. Coelenterazine (final concentration of 5 μM) was added and cells were incubated for 10 min. The 4 ligands (CCL19, CCL21, CCL19 chimera, and tailless CCL21) were added to respective wells. An equal amount chemokine buffer was added to wells without ligands. Forskolin was added to the wells 5 min after addition of ligands.
The BRET ratio was measured as the ratio eYFP/RLuc (BRET 525 emission/BRET 485 emission). In the absence of ligand, bioluminescence resonance energy transfer (BRET) between RLuc and eYFP, both harboured by the Camyel sensor, is high, giving rise to emission from both RLuc and eYFP and a concomitant high BRET ratio. When cAMP binds to the camyel sensor, bioluminescence resonance energy transfer from RLuc to eYFP is decreased, lowering emission from eYFP and thus lowering the BRET ratio. This means that stimulation of receptors that signal via an increase in cAMP leads to a decrease in BRET ratio. The opposite is the case upon stimulation of chemokine receptors that signal via a decrease in cAMP, giving rise to an increase in eYFP and thus BRET ratio.

neutrophil = settings: through inhibition of GAG-binding of CXCL8; cited from earlier work
[1] = tested on: monocyte derived human DCs (moDC); assay: Ibidi 3D μ-slide chemotaxis assay of monocyte derived human DCs (moDC); format: cell-based; settings: for potentiating effect on CCL21 induced chemotaxis of moDC (in words): FIG. 3, 6, 7, 8; for potentiation of moDC chemotaxis induced by CCL19: CCL19 1 and 10 nM, FIG. 1 column 5-8
Method: Ibidi3D μ-slide chemotaxis assay. Mature monocyte derived human DCs were thawed by adding pre-warmed X-vivo, 2% FCS and Glutamine, dissolving in a total of 10 ml of medium. After centrifugation (220×g, 5 min), the DCs were resuspended in fresh medium and left to acclimatize for 20 min.
The collagen mixture with cells was prepared according to the manufacturer's protocol. Briefly, 10 μl 7.5% NaHCO3 was mixed with 20 μl 10×MEM and 150 μl Pure Col was added. After mixing, 90 μl of a mixture of DCs (1×10^6 cells/ml) and CCL21 Tail peptide (final concentration 10 μM) was added. The cell/collagen solution was transferred to the ibidi μ-slide channel holding 6 μl. The collagen with cells was allowed to crosslink in the incubator for 45 minutes in a humidified petridish (holding napkins wetted in sterile water). While filling sink and source reservoirs, the channel and second reservoir were kept plugged. Medium with chemokine buffer (X-vivo 15, 2% HS, glutamine) and Tail-peptide was added to the sink (60 μl), and medium with chemokine plus Tail-peptide was added to the source (60 μl). The setup was transferred to Time-lapse. Cells were tracked for 10 hours and films were analyzed using Autozell tracking program. A population based chemotactic index (CI) was extracted using MatLab.

[2] = tested on: CT26-FL3-luc cancer cells; assay: In vivo cancer growth of CT26-FL3-luc cells in Balb/c mice (bioluminescence, IVIS); settings: FIG. 5; for tumor growth (bioluminescent signal, total flux): Balb/c mice
Method: SEQ ID NO: 1 was tested for its effect on in vivo cancer growth in mice. Female Balb/c mice were injected intraperitoneally with 1.5×10^5 CT26-FL3-luc cancer cells on day 0. The CT26-FL3-luc cell line is derived from a highly metastatic murine colorectal cancer and has been engineered to express luciferase. On days 1, 2, and 3, the mice were injected intraperitoneally with either 0.25 μg murine CCL21, 20 μg human CCL21-Tail peptide (SEQ ID NO: 1), or vehicle (PBS). The CCL21 concentration was determined based on previously published in vivo experiments using CCL21. Administration of SEQ ID NO: 1 functions by a different mechanism than administration of CCL21 as SEQ ID NO: 1 affects the distribution of endogenous CCL21 in the surrounding tissue. Cancer growth was followed over time in live animals by injecting luciferin intraperitoneally and measuring the bioluminescent signal arising from the luciferase-expressing cancer cells using an In Vivo Imaging System (IVIS®) scanner. The bioluminescent signal (total flux) was used to quantify the cancer growth. The number of mice per group was 5-7, and data is shown as mean±SEM.

[3] = tested on: monocyte derived human DCs (moDC); assay: Ibidi 3D μ-slide chemotaxis assay of monocyte derived human DCs (moDC); format: cell-based; settings: 10 nM CCL21; peptide dose dependent; FIG. 1 column 1-4
tumour cells = settings: CCL21 administered to tumor sites; cited from earlier work

G-protein signalling via CCR7 induced by the chemokine itself (comparison) (CCR7): more potent than CCL21
Molecule: CCL19: chemokine, endogenous ligand of CCR7

Molecule: CXCL9(74-103): CXCL9 C-terminal peptide capable of binding GAGs (Vanheule et al. 2017) (KKKQKNGKKHQKKKVLKVRKSQRSRQKKTT; UniProt Q07325 96-125, looked up, fragment)
CXCL8-induced neutrophil migration (neutrophil): inhibit CXCL8-induced neutrophil migration

Molecule: KDRGASKTG KKGKGSKGCK RTERSQTPKG P (KDRGASKTGKKGKGSKGCKRTERSQTPKGP; listed as Homo sapiens) [SEQ ID NO: 6, CCL21 82-111]
potentiating effect on CCL21 induced chemotaxis of moDC (in words) [1]: reduced capability to potentiate chemotaxis

Molecule: PSPQKPAQGCRKDRGASKTGK (PSPQKPAQGCRKDRGASKTGK; listed as Homo sapiens) [SEQ ID NO: 36, C terminally truncated fragment of CCL21 71-111]
potentiating effect on CCL21 induced chemotaxis of moDC (in words) [1]: did not potentiate chemotaxis

effect of peptide on CCL19-induced CCR7 signalling (CCR7; FIG. 4): no effect
effect of peptide on CCL19 chimera-induced CCR7 signalling (CCR7; FIG. 4): potentiated
effect of peptide on full-length CCL21-induced CCR7 signalling (CCR7; FIG. 4): potentiated
effect of peptide on tailless CCL21-induced CCR7 signalling (CCR7; FIG. 4): no effect
effect of peptide on CCL19 chimera-induced CCR7 signalling (CCR7; FIG. 4, listed as CCL21 71-111): increased CCR7 signalling
effect of peptide on full-length CCL21-induced CCR7 signalling (CCR7; FIG. 4, listed as CCL21 71-111): increased CCR7 signalling
Molecule: PSPQKPAQGCRKDRGASKTGKKGKGSKGCKRTERSQTPKGP (PSPQKPAQGCRKDRGASKTGKKGKGSKGCKRTERSQTPKGP; listed as Homo sapiens) [SEQ ID NO: 1, full length C-terminal tail of CCL21, CCL21 71-111 (D1-D4)]
tumor growth (bioluminescent signal, total flux) ([2]; 20 μg peptide intraperitoneally on days 1, 2, 3): decreased tumor growth
effectiveness on tumor growth compared with CCL21 treatment ([2]; 20 μg peptide vs 0.25 μg murine CCL21, intraperitoneally): more effective than treatment with the chemokine CCL21
potentiation of moDC chemotaxis induced by CCL19 ([1]; peptide 10 uM): less than two fold
potentiation of moDC chemotaxis induced by CCL19 ([1]; peptide 10 uM, listed as CCL21 71-111): only two fold
potentiation of moDC chemotaxis induced by CXCL12gamma ([1]; CXCL12gamma 20 and 100 nM, peptide 10 uM, FIG. 1 column 9-12): no strong chemotaxis signal
potentiating effect on CCL21 induced chemotaxis of moDC (in words) [1]: retained full potency
effect of peptide on CCL19-induced CCR7 signalling (CCR7; FIG. 4, listed as CCL21 71-111): essentially no difference in CCR7 signalling
effect of peptide on tailless CCL21-induced CCR7 signalling (CCR7; FIG. 4, listed as CCL21 71-111): essentially no difference in CCR7 signalling
potentiation of moDC chemotaxis induced by CCL21 [3]: up to 26 fold

Molecule: RKDRGASKTGKKGKGSKGCKRTERSQTPKGP (RKDRGASKTGKKGKGSKGCKRTERSQTPKGP; listed as Homo sapiens) [SEQ ID NO: 4, CCL21 81-111 (D2-D4)]
potentiating effect on CCL21 induced chemotaxis of moDC (in words) [1]: retained full potentiating effect

Molecule: TG KKGKGSKGCK RTERSQTPKG P (TGKKGKGSKGCKRTERSQTPKGP; listed as Homo sapiens) [SEQ ID NO: 13, CCL21 89-111]
potentiating effect on CCL21 induced chemotaxis of moDC (in words) [1]: retain full potentiating effect

G-protein signalling via CCR7 induced by the chemokine itself (comparison) (CCR7): resembles CCL21 signalling
B1: CCL19 chimera: CCL19 with CCL21 Tail peptide attached at the C-terminus (protein)
chain: GTNDAEDCCLSVTQKPIPGYIVRNFHYLLIKDGCRVPAVVFTTLRGRQLCAPPDQPWVERIIQRLQRTSAKMKRRSSPSPQKPAQGCRKDRGASKTGKKGKGSKGCKRTERSQTPKGP

B2: murine CCL21: murine chemokine CCL21 injected intraperitoneally as comparison treatment (protein, UniProt P84444 24-133, looked up)
C-C motif chemokine 21a: SDGGGQDCCLKYSQKKIPYSIVRGYRKQEPSLGCPIPAILFSPRKHSKPELCANPEEGWVQNLMRRLDQPPAPGKQSPGCRKNRGTSKSGKKGKGSKGCKRTEQTQPSRG
tumor growth (bioluminescent signal, total flux) ([2]; 0.25 μg murine CCL21 intraperitoneally on days 1, 2, 3): decreased tumor growth

B3: SDGGAQDCCLKYSQRKIPAKVVRSYRKQEPSLGCSIPAILFLPRKRSQAELCADPKELWVQQLMQHLDKTPSPQKPAQGCRKDRGASKTGKKGKGSKGCKRTERSQTPKGP (protein, listed as Homo sapiens)
chain: SDGGAQDCCLKYSQRKIPAKVVRSYRKQEPSLGCSIPAILFLPRKRSQAELCADPKELWVQQLMQHLDKTPSPQKPAQGCRKDRGASKTGKKGKGSKGCKRTERSQTPKGP
notes: chemokine, endogenous ligand of CCR7; full length CCL21 without the signal peptide
growth of tumour cells (tumour cells): reduced growth of the tumour cells
